Test results published in US20210032299A1 (Eli Lilly, published 2021).
Starred links: 1 amine or outer side, 2 acyl side, 3 side chain; linkers in the order of their positions; H or OH if unused. Non-standard residues stand in square brackets, D forms with d. Groups on a side chain read outwards from the residue. No end group written: not given here. *: point of attachment. C20 diacid = O=C(O)CCCCCCCCCCCCCCCCCCC(=O)*; γGlu = O=C(O)[C@H](CCC(=O)[*:2])N[*:1]; αMeF = C[C@](N)(Cc1ccccc1)C(=O)O; 4Pal = N[C@@H](Cc1ccncc1)C(=O)O; αMeL = CC(C)C[C@](C)(N)C(=O)O; AEEA = NCCOCCOCC(=O)O; Aib = CC(C)(N)C(=O)O

T1: human glucose-dependent insulinotropic peptide receptor (human, UniProt P48546 22-466)
T1 sequence (looked up): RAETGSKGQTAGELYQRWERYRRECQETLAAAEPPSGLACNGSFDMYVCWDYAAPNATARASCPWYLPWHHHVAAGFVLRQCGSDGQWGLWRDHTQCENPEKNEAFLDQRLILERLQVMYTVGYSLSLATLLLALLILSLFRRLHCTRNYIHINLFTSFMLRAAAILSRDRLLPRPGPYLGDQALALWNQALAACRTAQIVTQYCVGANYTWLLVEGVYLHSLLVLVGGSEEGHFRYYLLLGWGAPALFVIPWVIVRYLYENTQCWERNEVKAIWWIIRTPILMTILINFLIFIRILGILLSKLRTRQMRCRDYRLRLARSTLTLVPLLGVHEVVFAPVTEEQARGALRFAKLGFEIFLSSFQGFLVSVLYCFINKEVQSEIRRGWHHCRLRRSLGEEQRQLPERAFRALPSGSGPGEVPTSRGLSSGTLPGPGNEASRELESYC


Experiments:
Experiment in all cases: cell-based or functional assay
human glucagon receptor = human glucagon receptor (human, UniProt P47871 26-477)
Sequence of human glucagon receptor (P47871 26-477): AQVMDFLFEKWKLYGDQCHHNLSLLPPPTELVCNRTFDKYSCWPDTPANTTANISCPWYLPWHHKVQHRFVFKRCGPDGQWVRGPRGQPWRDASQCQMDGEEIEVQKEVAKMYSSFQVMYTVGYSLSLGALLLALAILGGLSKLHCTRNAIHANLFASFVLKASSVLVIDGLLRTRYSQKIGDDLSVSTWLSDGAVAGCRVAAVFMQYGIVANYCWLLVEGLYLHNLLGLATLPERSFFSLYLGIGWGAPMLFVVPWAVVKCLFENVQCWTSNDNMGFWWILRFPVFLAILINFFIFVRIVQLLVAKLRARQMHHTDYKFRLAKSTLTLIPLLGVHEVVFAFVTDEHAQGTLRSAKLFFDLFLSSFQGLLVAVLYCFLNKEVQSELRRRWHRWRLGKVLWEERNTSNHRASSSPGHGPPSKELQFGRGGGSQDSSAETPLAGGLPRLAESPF

[1] = target: T1, human glucose-dependent insulinotropic …
human GLP-1 receptor = human GLP-1 receptor (human, UniProt P43220 24-463)

Row | Binder | hGcgR cAMP Rel EC50 (human glucagon receptor) | hGIPR cAMP Rel EC50 [1] | hGLP1R cAMP Rel EC50 (human GLP-1 receptor)
1 | Y[Aib]EGT[αMeF]ISDYSI[αMeL]LDKK([AEEA-AEEA-γGlu-C20 diacid])HQ[Aib]EFVE[4Pal]LLATGPSSGAPPPS-NH2 (N-terminus assumed; SMILES CC[C@H](C)[C@H](NC(=O)[C@H](CO)NC(=O)[C@H](Cc1ccc(O)cc1)NC(=O)[C@H](CC(=O)O)NC(=O)[C@H](CO)NC(=O)[C@@H](NC(=O)[C@](C)(Cc1ccccc1)NC(=O)[C@@H](NC(=O)CNC(=O)[C@H](CCC(=O)O)NC(=O)C(C)(C)NC(=O)[C@@H](N)Cc1ccc(O)cc1)[C@@H](C)O)[C@@H](C)CC)C(=O)N[C@@](C)(CC(C)C)C(=O)N[C@@H](CC(C)C)C(=O)N[C@@H](CC(=O)O)C(=O)N[C@@H](CCCCN)C(=O)N[C@@H](CCCCNC(=O)COCCOCCNC(=O)COCCOCCNC(=O)CC[C@H](NC(=O)CCCCCCCCCCCCCCCCCCC(=O)O)C(=O)O)C(=O)N[C@@H](Cc1c[nH]cn1)C(=O)N[C@@H](CCC(N)=O)C(=O)NC(C)(C)C(=O)N[C@@H](CCC(=O)O)C(=O)N[C@@H](Cc1ccccc1)C(=O)N[C@H](C(=O)N[C@@H](CCC(=O)O)C(=O)N[C@@H](Cc1ccncc1)C(=O)N[C@@H](CC(C)C)C(=O)N[C@@H](CC(C)C)C(=O)N[C@@H](C)C(=O)N[C@H](C(=O)NCC(=O)N1CCC[C@H]1C(=O)N[C@@H](CO)C(=O)N[C@@H](CO)C(=O)NCC(=O)N[C@@H](C)C(=O)N1CCC[C@H]1C(=O)N1CCC[C@H]1C(=O)N1CCC[C@H]1C(=O)N[C@@H](CO)C(N)=O)[C@@H](C)O)C(C)C) [Example 61] | > 5000 nM | 0.0167 nM | 192 nM
2 | Y[Aib]EGTFISDYSI[αMeL]LDKK([AEEA-AEEA-γGlu-C20 diacid])HQ[Aib]EFVEYLLETGPSSGAPPPS-NH2 (N-terminus assumed; SMILES CC[C@H](C)[C@H](NC(=O)[C@H](Cc1ccccc1)NC(=O)[C@@H](NC(=O)CNC(=O)[C@H](CCC(=O)O)NC(=O)C(C)(C)NC(=O)[C@@H](N)Cc1ccc(O)cc1)[C@@H](C)O)C(=O)N[C@@H](CO)C(=O)N[C@@H](CC(=O)O)C(=O)N[C@@H](Cc1ccc(O)cc1)C(=O)N[C@@H](CO)C(=O)N[C@H](C(=O)N[C@@](C)(CC(C)C)C(=O)N[C@@H](CC(C)C)C(=O)N[C@@H](CC(=O)O)C(=O)N[C@@H](CCCCN)C(=O)N[C@@H](CCCCNC(=O)COCCOCCNC(=O)COCCOCCNC(=O)CC[C@H](NC(=O)CCCCCCCCCCCCCCCCCCC(=O)O)C(=O)O)C(=O)N[C@@H](Cc1c[nH]cn1)C(=O)N[C@@H](CCC(N)=O)C(=O)NC(C)(C)C(=O)N[C@@H](CCC(=O)O)C(=O)N[C@@H](Cc1ccccc1)C(=O)N[C@H](C(=O)N[C@@H](CCC(=O)O)C(=O)N[C@@H](Cc1ccc(O)cc1)C(=O)N[C@@H](CC(C)C)C(=O)N[C@@H](CC(C)C)C(=O)N[C@@H](CCC(=O)O)C(=O)N[C@H](C(=O)NCC(=O)N1CCC[C@H]1C(=O)N[C@@H](CO)C(=O)N[C@@H](CO)C(=O)NCC(=O)N[C@@H](C)C(=O)N1CCC[C@H]1C(=O)N1CCC[C@H]1C(=O)N1CCC[C@H]1C(=O)N[C@@H](CO)C(N)=O)[C@@H](C)O)C(C)C)[C@@H](C)CC) [Example 64] | 3070 nM | 0.0448 nM | > 5000 nM
3 | Y[Aib]EGT[αMeF]ISDYSI[αMeL]LDKK([AEEA-AEEA-γGlu-C20 diacid])HQ[Aib]EFVE[4Pal]LLAQGPSSGAPPPS-NH2 (N-terminus assumed; SMILES CC[C@H](C)[C@H](NC(=O)[C@H](CO)NC(=O)[C@H](Cc1ccc(O)cc1)NC(=O)[C@H](CC(=O)O)NC(=O)[C@H](CO)NC(=O)[C@@H](NC(=O)[C@](C)(Cc1ccccc1)NC(=O)[C@@H](NC(=O)CNC(=O)[C@H](CCC(=O)O)NC(=O)C(C)(C)NC(=O)[C@@H](N)Cc1ccc(O)cc1)[C@@H](C)O)[C@@H](C)CC)C(=O)N[C@@](C)(CC(C)C)C(=O)N[C@@H](CC(C)C)C(=O)N[C@@H](CC(=O)O)C(=O)N[C@@H](CCCCN)C(=O)N[C@@H](CCCCNC(=O)COCCOCCNC(=O)COCCOCCNC(=O)CC[C@H](NC(=O)CCCCCCCCCCCCCCCCCCC(=O)O)C(=O)O)C(=O)N[C@@H](Cc1c[nH]cn1)C(=O)N[C@@H](CCC(N)=O)C(=O)NC(C)(C)C(=O)N[C@@H](CCC(=O)O)C(=O)N[C@@H](Cc1ccccc1)C(=O)N[C@H](C(=O)N[C@@H](CCC(=O)O)C(=O)N[C@@H](Cc1ccncc1)C(=O)N[C@@H](CC(C)C)C(=O)N[C@@H](CC(C)C)C(=O)N[C@@H](C)C(=O)N[C@@H](CCC(N)=O)C(=O)NCC(=O)N1CCC[C@H]1C(=O)N[C@@H](CO)C(=O)N[C@@H](CO)C(=O)NCC(=O)N[C@@H](C)C(=O)N1CCC[C@H]1C(=O)N1CCC[C@H]1C(=O)N1CCC[C@H]1C(=O)N[C@@H](CO)C(N)=O)C(C)C) [Example 60] | > 5000 nM | 0.0369 nM | 71 nM
4 | Y[Aib]EGTFISDYSI[αMeL]LDKK([AEEA-AEEA-γGlu-C20 diacid])HQ[Aib]EFVEYLLEQGPSSGAPPPS-NH2 (N-terminus assumed; SMILES CC[C@H](C)[C@H](NC(=O)[C@H](Cc1ccccc1)NC(=O)[C@@H](NC(=O)CNC(=O)[C@H](CCC(=O)O)NC(=O)C(C)(C)NC(=O)[C@@H](N)Cc1ccc(O)cc1)[C@@H](C)O)C(=O)N[C@@H](CO)C(=O)N[C@@H](CC(=O)O)C(=O)N[C@@H](Cc1ccc(O)cc1)C(=O)N[C@@H](CO)C(=O)N[C@H](C(=O)N[C@@](C)(CC(C)C)C(=O)N[C@@H](CC(C)C)C(=O)N[C@@H](CC(=O)O)C(=O)N[C@@H](CCCCN)C(=O)N[C@@H](CCCCNC(=O)COCCOCCNC(=O)COCCOCCNC(=O)CC[C@H](NC(=O)CCCCCCCCCCCCCCCCCCC(=O)O)C(=O)O)C(=O)N[C@@H](Cc1c[nH]cn1)C(=O)N[C@@H](CCC(N)=O)C(=O)NC(C)(C)C(=O)N[C@@H](CCC(=O)O)C(=O)N[C@@H](Cc1ccccc1)C(=O)N[C@H](C(=O)N[C@@H](CCC(=O)O)C(=O)N[C@@H](Cc1ccc(O)cc1)C(=O)N[C@@H](CC(C)C)C(=O)N[C@@H](CC(C)C)C(=O)N[C@@H](CCC(=O)O)C(=O)N[C@@H](CCC(N)=O)C(=O)NCC(=O)N1CCC[C@H]1C(=O)N[C@@H](CO)C(=O)N[C@@H](CO)C(=O)NCC(=O)N[C@@H](C)C(=O)N1CCC[C@H]1C(=O)N1CCC[C@H]1C(=O)N1CCC[C@H]1C(=O)N[C@@H](CO)C(N)=O)C(C)C)[C@@H](C)CC) [Example 63] | 1170 nM | 0.0398 nM | > 5000 nM
5 | Y[Aib]EGT[αMeF]ISDYSI[αMeL]LDKK([AEEA-AEEA-γGlu-C20 diacid])HQ[Aib]EFVE[4Pal]LLAAGPSSGAPPPS-NH2 (N-terminus assumed; SMILES CC[C@H](C)[C@H](NC(=O)[C@H](CO)NC(=O)[C@H](Cc1ccc(O)cc1)NC(=O)[C@H](CC(=O)O)NC(=O)[C@H](CO)NC(=O)[C@@H](NC(=O)[C@](C)(Cc1ccccc1)NC(=O)[C@@H](NC(=O)CNC(=O)[C@H](CCC(=O)O)NC(=O)C(C)(C)NC(=O)[C@@H](N)Cc1ccc(O)cc1)[C@@H](C)O)[C@@H](C)CC)C(=O)N[C@@](C)(CC(C)C)C(=O)N[C@@H](CC(C)C)C(=O)N[C@@H](CC(=O)O)C(=O)N[C@@H](CCCCN)C(=O)N[C@@H](CCCCNC(=O)COCCOCCNC(=O)COCCOCCNC(=O)CC[C@H](NC(=O)CCCCCCCCCCCCCCCCCCC(=O)O)C(=O)O)C(=O)N[C@@H](Cc1c[nH]cn1)C(=O)N[C@@H](CCC(N)=O)C(=O)NC(C)(C)C(=O)N[C@@H](CCC(=O)O)C(=O)N[C@@H](Cc1ccccc1)C(=O)N[C@H](C(=O)N[C@@H](CCC(=O)O)C(=O)N[C@@H](Cc1ccncc1)C(=O)N[C@@H](CC(C)C)C(=O)N[C@@H](CC(C)C)C(=O)N[C@@H](C)C(=O)N[C@@H](C)C(=O)NCC(=O)N1CCC[C@H]1C(=O)N[C@@H](CO)C(=O)N[C@@H](CO)C(=O)NCC(=O)N[C@@H](C)C(=O)N1CCC[C@H]1C(=O)N1CCC[C@H]1C(=O)N1CCC[C@H]1C(=O)N[C@@H](CO)C(N)=O)C(C)C) [Example 62] | > 5000 nM | 0.0116 nM | 58.2 nM
6 | Y[Aib]EGTFISDYSI[αMeL]LDKK([AEEA-AEEA-γGlu-C20 diacid])HQ[Aib]EFVEYLLEAGPSSGAPPPS-NH2 (N-terminus assumed; SMILES CC[C@H](C)[C@H](NC(=O)[C@H](Cc1ccccc1)NC(=O)[C@@H](NC(=O)CNC(=O)[C@H](CCC(=O)O)NC(=O)C(C)(C)NC(=O)[C@@H](N)Cc1ccc(O)cc1)[C@@H](C)O)C(=O)N[C@@H](CO)C(=O)N[C@@H](CC(=O)O)C(=O)N[C@@H](Cc1ccc(O)cc1)C(=O)N[C@@H](CO)C(=O)N[C@H](C(=O)N[C@@](C)(CC(C)C)C(=O)N[C@@H](CC(C)C)C(=O)N[C@@H](CC(=O)O)C(=O)N[C@@H](CCCCN)C(=O)N[C@@H](CCCCNC(=O)COCCOCCNC(=O)COCCOCCNC(=O)CC[C@H](NC(=O)CCCCCCCCCCCCCCCCCCC(=O)O)C(=O)O)C(=O)N[C@@H](Cc1c[nH]cn1)C(=O)N[C@@H](CCC(N)=O)C(=O)NC(C)(C)C(=O)N[C@@H](CCC(=O)O)C(=O)N[C@@H](Cc1ccccc1)C(=O)N[C@H](C(=O)N[C@@H](CCC(=O)O)C(=O)N[C@@H](Cc1ccc(O)cc1)C(=O)N[C@@H](CC(C)C)C(=O)N[C@@H](CC(C)C)C(=O)N[C@@H](CCC(=O)O)C(=O)N[C@@H](C)C(=O)NCC(=O)N1CCC[C@H]1C(=O)N[C@@H](CO)C(=O)N[C@@H](CO)C(=O)NCC(=O)N[C@@H](C)C(=O)N1CCC[C@H]1C(=O)N1CCC[C@H]1C(=O)N1CCC[C@H]1C(=O)N[C@@H](CO)C(N)=O)C(C)C)[C@@H](C)CC) [Example 65] | 850 nM | 0.0346 nM | > 5000 nM
